From US11278600B2, “Human alpha-galactosidase variants” (Codexis, Inc., priority 2014, dated 2022)
Residue numbers refer to the chain shown, from its start.

B1: 39 (protein)
chain: LDNGLARTPTMGWLHWERFMCNLDCQEEPDSCISEKLFMEMAELMVSEGWKDAGYEYLCIDDCWMAPQRDSEGRLQADPQRFPHGIRQLANYVHSKGLKLGIYADVGNKTCAGFPGSFGYYDINAQTFADWGVDLLKFDGCYCDSLGNLADGYKHMSLALKQVGASSIVXCEWPLYSWPFQKPNYTEIRQYCNHWRNFADIDDSWKSIKSILDWTSENQERIVDVAGPGGWNDPDMLVIGNFGLSWNQQVTQMALWAIMAAPLFMSNDLRHISPQAKALLQDKDVIAINQDPLGKQGYQLRQGDNFEVWERPLSGLAWAVAMINRQEIGGPRSYTIAVASLGKGVACNPACFITQLLPVKRKLGFYEWTSRLRSHINPTGTVLLQLENTMQMSKDLLL
modifications: Synthetic Polypeptide sequence of Variant No. 39 of mature Human GLA; VARIANT (170)..(170): Xaa = any amino acid or absent
B2: 160 (protein)
chain: LDNGLARTPTMGWLHWERFMCNLDCQEEPDSCISEKLFMEMAELMVSEGWKDAGYEYLCIDDCWMAPQRDSEGRLQADPQRFPHGIRQLANYVHSKGLKLGIYADVGNKTCAGFPGSFGYYDIDAQTFADWGVDLLKFDGCYCDSLENLADGYKHMSLALNRTGRAIVYSCEWPLYMWPFQKPNYTEIRQYCNHWRNFADIDDSWKSIKSILDWTSFNQERIVDVAGPGGWNDPDMLVIGNFGLSWNQQVTQMALWAIMAAPLFMSNDLRHISPQAKALLQDKDVIAINQDPLGKQGYQLRQGDNFEVWERPLSGLAWAVAMINRQEIGGPRSYTIAVASLGKGVACNPACFITQLLPVKRKLGFYEWTSRLRSHINPTGTVLLQLENTMQMSKDLLL
modifications: Synthetic Polypeptide sequence of Variant No. 160 of mature Human GLA
B3: 169 (protein)
chain: B2 chain with A166S, S374T
modifications: Synthetic Polypeptide sequence of Variant No. 169 of mature Human GLA
B4: 166 (protein)
chain: B2 chain with S34H, A166S, M390R
modifications: Synthetic Polypeptide sequence of Variant No. 166 of mature Human GLA
B5: 163 (protein)
chain: B2 chain with S31D, A166S
modifications: Synthetic Polypeptide sequence of Variant No. 163 of mature Human GLA
B6: 161 (protein)
chain: B2 chain with A166H
modifications: Synthetic Polypeptide sequence of Variant No. 161 of mature Human GLA
B7: 168 (protein)
chain: B2 chain with A166S, S374M
modifications: Synthetic Polypeptide sequence of Variant No. 168 of mature Human GLA
B8: 164 (protein)
chain: B2 chain with S34D, A166S, M392P
modifications: Synthetic Polypeptide sequence of Variant No. 164 of mature Human GLA
B9: 162 (protein)
chain: B2 chain with A166K
modifications: Synthetic Polypeptide sequence of Variant No. 162 of mature Human GLA
B10: 165 (protein)
chain: B2 chain with S34G, A166S
modifications: Synthetic Polypeptide sequence of Variant No. 165 of mature Human GLA
B11: 167 (protein)
chain: B2 chain with S34R, A166S
modifications: Synthetic Polypeptide sequence of Variant No. 16 of mature Human GLA
B12: 170 (protein)
chain: B2 chain with A166S, S393E
modifications: Synthetic Polypeptide sequence of Variant No. 170 of mature Human GLA

Columns and labels:
Assay type in all cases: biochemical
[1] = HTP-analysis of yeast culture supernatants, no challenge (MUGal hydrolysis); details: activity of the variant/activity of WT GLA (SEQ ID NO: 5), yeast supernatant
Summary of the method: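 GLA variants expressed in yeast INVSc1, secreted into SD-Ura broth over 66-84 h at 30° C; clarified supernatants tested without challenge. Supernatant mixed with McIlvaine buffer pH 4.8 and 2 mM MUGal (citrate/KCl, pH 4.6), 37° C for 30-180 min, carbonate-quenched, fluorescence Ex 355/Em 448 nm.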

[2] = HTP-analysis of supernatants pretreated with acid (MUGal hydrolysis); details: challenge at pH 4.2; activity of the variant/activity of WT GLA (SEQ ID NO: 5); yeast supernatant
Summary of the method: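 Supernatants from INVSc1 yeast secreting GLA variants were challenged at 37° C. for 1-3 h in McIlvaine buffer at pH 3.3-4.3. Residual activity was then measured on 4 mM MUGal substrate stock at pH 4.8 with citrate buffer pH 4.3, over 30-180 min at 37° C. Reactions were quenched with sodium carbonate and read by fluorescence (Ex 355/Em 448 nm).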

[3] = HTP-analysis of supernatants pretreated with base (MUGal hydrolysis); details: challenge at pH 7.1; activity of the variant/activity of WT GLA (SEQ ID NO: 5); yeast supernatant
Summary of the method: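 Fluorescence of released 4-MU (Ex 355 nm, Em 448 nm) after carbonate quench reports MUGal hydrolysis by GLA variants secreted from INVSc1 yeast. Before the acidic (pH 4.3-4.8) 30-180 min reaction at 37° C, supernatants had been pre-incubated at pH 7.0-9.7 for 1-18 h at 37° C.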

Row | Molecule | Relative Activity of GLA Variants After No Challenge (NC) [1] | Relative Activity of GLA Variants After Challenge at pH 4.2 [2] | Relative Activity of GLA Variants After Challenge at pH 7.1 [3]
1 | B1 | + (+ = 0.5 to 1.5 relative activity over WT GLA (SEQ ID NO: 5)) | ++ (++ = >1.5 to 2.5 relative activity over WT GLA (SEQ ID NO: 5)) | ++ (++ = >1.5 to 2.5 relative activity over WT GLA (SEQ ID NO: 5))
2 | B2 | + (+ = 0.5 to 1.5 relative activity over WT GLA (SEQ ID NO: 5)) | ++ (++ = >1.5 to 2.5 relative activity over WT GLA (SEQ ID NO: 5)) | + (+ = 0.5 to 1.5 relative activity over WT GLA (SEQ ID NO: 5))
3 | B3 | ++ (++ = >1.5 to 2.5 relative activity over WT GLA (SEQ ID NO: 5)) | ++ (++ = >1.5 to 2.5 relative activity over WT GLA (SEQ ID NO: 5)) | ++ (++ = >1.5 to 2.5 relative activity over WT GLA (SEQ ID NO: 5))
4 | B4 | ++ (++ = >1.5 to 2.5 relative activity over WT GLA (SEQ ID NO: 5)) | + (+ = 0.5 to 1.5 relative activity over WT GLA (SEQ ID NO: 5)) | + (+ = 0.5 to 1.5 relative activity over WT GLA (SEQ ID NO: 5))
5 | B5 | + (+ = 0.5 to 1.5 relative activity over WT GLA (SEQ ID NO: 5)) | + (+ = 0.5 to 1.5 relative activity over WT GLA (SEQ ID NO: 5)) | + (+ = 0.5 to 1.5 relative activity over WT GLA (SEQ ID NO: 5))
6 | B6 | + (+ = 0.5 to 1.5 relative activity over WT GLA (SEQ ID NO: 5)) | + (+ = 0.5 to 1.5 relative activity over WT GLA (SEQ ID NO: 5)) | + (+ = 0.5 to 1.5 relative activity over WT GLA (SEQ ID NO: 5))
7 | B7 | ++ (++ = >1.5 to 2.5 relative activity over WT GLA (SEQ ID NO: 5)) | ++ (++ = >1.5 to 2.5 relative activity over WT GLA (SEQ ID NO: 5)) | ++ (++ = >1.5 to 2.5 relative activity over WT GLA (SEQ ID NO: 5))
8 | B8 | + (+ = 0.5 to 1.5 relative activity over WT GLA (SEQ ID NO: 5)) | − (− = <0.5 relative activity to WT GLA (SEQ ID NO: 5)) | − (− = <0.5 relative activity to WT GLA (SEQ ID NO: 5))
9 | B9 | + (+ = 0.5 to 1.5 relative activity over WT GLA (SEQ ID NO: 5)) | + (+ = 0.5 to 1.5 relative activity over WT GLA (SEQ ID NO: 5)) | + (+ = 0.5 to 1.5 relative activity over WT GLA (SEQ ID NO: 5))
10 | B10 | + (+ = 0.5 to 1.5 relative activity over WT GLA (SEQ ID NO: 5)) | − (− = <0.5 relative activity to WT GLA (SEQ ID NO: 5)) | − (− = <0.5 relative activity to WT GLA (SEQ ID NO: 5))
11 | B11 | + (+ = 0.5 to 1.5 relative activity over WT GLA (SEQ ID NO: 5)) | + (+ = 0.5 to 1.5 relative activity over WT GLA (SEQ ID NO: 5)) | + (+ = 0.5 to 1.5 relative activity over WT GLA (SEQ ID NO: 5))
12 | B12 | ++ (++ = >1.5 to 2.5 relative activity over WT GLA (SEQ ID NO: 5)) | ++ (++ = >1.5 to 2.5 relative activity over WT GLA (SEQ ID NO: 5)) | ++ (++ = >1.5 to 2.5 relative activity over WT GLA (SEQ ID NO: 5))
